Assay results from paper PMC8062530.

Target: Siglec-9, Siglec-10, and Siglec-14
Test: BLI; Fc-fusions of the Siglec proteins immobilised on Protein A biosensors (ForteBio) at 5 µg/mL; PTGFRN extracellular domain in 2-fold serial dilutions starting at 100 µg/mL; equilibrium dissociation constants calculated with ForteBio Data Analysis software v. 10.0

B1: extracellular domain of PTGFRN (aa 26-832) with a C-terminal histidine tag (domain or fragment)
chain: VPTATLVRVVGTELVIPCNVSDYDGPSEQNFDWSFSSLGSSFVELASTWEVGFPAQLYQERLQRGEILLRRTANDAVELHIKNVQPSDQGHYKCSTPSTDATVQGNYEDTVQVKVLADSLHVGPSARPPPSLSLREGEPFELRCTAASASPLHTHLALLWEVHRGPARRSVLALTHEGRFHPGLGYEQRYHSGDVRLDTVGSDAYRLSVSRALSADQGSYRCIVSEWIAEQGNWQEIQEKAVEVATVVIQPSVLRAAVPKNVSVAEGKELDLTCNITTDRADDVRPEVTWSFSRMPDSTLPGSRVLARLDRDSLVHSSPHVALSHVDARSYHLLVRDVSKENSGYYYCHVSLWAPGHNRSWHKVAEAVSSPAGVGVTWLEPDYQVYLNASKVPGFADDPTELACRVVDTKSGEANVRFTVSWYYRMNRRSDNVVTSELLAVMDGDWTLKYGERSKQRAQDGDFIFSKEHTDTFNFRIQRTTEEDRGNYYCVVSAWTKQRNNSWVKSKDVFSKPVNIFWALEDSVLVVKARQPKPFFAAGNTFEMTCKVSSKNIKSPRYSVLIMAEKPVGDLSSPNETKYIISLDQDSVVKLENWTDASRVDGVVLEKVQEDEFRYRMYQTQVSDAGLYRCMVTAWSPVRGSLWREAATSLSNPIEIDFQTSGPIFNASVHSDTPSVIRGDLIKLFCIITVEGAALDPDDMAFDVSWFAVHSFGLDKAPVLLSSLDRKGIVTTSRRDWKSDLSLERVSVLEFLLQVHGSEDQDFGNYYCSVTPWVKSPTGSWQKEAEIHSKPVFITVKMDVLNAFKYP
Kd: 0.7 to 4 µM
